Assay results as given in patent publication US20130064790A1 (PROYECTO DE BIOMEDICINA CIMA S L, published 2013).

Each binder was assayed against biotinylated IL-10 (Homo sapiens (Human)) (UniProt P22301) (assay: phage display biopanning, 3 rounds on biotinylated IL-10 on streptavidin plates; clones sequenced).
biotinylated IL-10 (Homo sapiens (Human)), sequence (P22301 19-178 limits assumed, form in doubt): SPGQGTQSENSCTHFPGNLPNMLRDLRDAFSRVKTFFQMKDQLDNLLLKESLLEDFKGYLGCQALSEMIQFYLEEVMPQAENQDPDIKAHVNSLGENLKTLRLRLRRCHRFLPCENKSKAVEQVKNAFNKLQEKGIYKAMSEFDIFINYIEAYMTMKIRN

Binder | No. of colonies [colonies]
ARWMHRHHGWSDRHR [peptide P2 (SEQ ID NO: 2)] | 29
RKLRPHWLHFHPVAV [peptide P1 (SEQ ID NO: 1)] | 25

Each binder was assayed against T1, human IL-10 (hIL-10) (human, UniProt P22301 19-178) (assay: SPR (BIAcore X), human IL-10 immobilized on CM5 chip, peptide 10 µM injected).
T1 construct: also called human recombinant protein IL-10 (R & D Systems, cat No. 217-IL/CF); hIL-10 (e-Bioscience)
Procedure: To perform this assay, the Biosensor BIAcore X (BIAcore, AB, Uppsala, Sweden) was used. Briefly, human recombinant protein IL-10 (R & D Systems, cat No. 217-IL/CF) was covalently immobilized on the surface of flow cell 2 (FC2) of a CM5 chip (BIAcore), as described in De Crescenzo et al. 2001 (JBC, Vol 276; 29632-29643). Flow cell 1 (FC1), on the surface of which IL-10 is not immobilized, was used as a reference flow cell. The peptide solutions (10 μM) were injected at least twice in 10 mM Hepes buffer, pH 7.4, 150 mM NaCl, 0.005% Tween 20 (Polyoxyethylene Sorbitan Monolaurate) at a flow of 30 μl/min. The binding curves were processed by means of subtracting the response in FC1 from that obtained in FC2. The response in equilibrium was compared between the test peptide and an irrelevant control peptide of the same length. The control peptide used was peptide P301 (SEQ ID NO: 54) (derived from the HIV-1 coat, gp120 (301-315): […]). Each response was multiplied by a mass correction factor: MW(PX)/MW(P), where MW(PX) is the molecular weight of the test peptide P and MW(P) is the molecular weight of the control peptide (P301).

T1 sequence (P22301 19-178 limits assumed): as the sequence (P22301 19-178 limits assumed, form in doubt) above

Binder | binding result
CHRCFHFRRHPVAV (Amino acids 1-14 of P9) [peptide P9 (1-14) (SEQ ID NO: 46)] | binds
HRCFHFRRHPVAVF (Amino acids 2-15 of P9) [peptide P9 (2-15) (SEQ ID NO: 45)] | binds
HRCFHFRRHPVA (Amino acids 2-13 of P9) [peptide P9 (2-13) (SEQ ID NO: 49)] | binds
RCFHFRRHPVAV (Amino acids 3-14 of P9) [peptide P9 (3-14) (SEQ ID NO: 50)] | binds
HRCFHFRRHPVAV (Amino acids 2-14 of P9) [peptide P9 (2-14) (SEQ ID NO: 48)] | binds
CHRCFHFRRHPVAAF (P9 with Val 14 replaced by Ala) [peptide P9 (14 Ala) (SEQ ID NO: 52)] | binds
CHRCFHFRRHPVAVA (P9 with Phe 15 replaced by Ala) [peptide P9 (15 Ala) (SEQ ID NO: 51)] | binds
CHRCFHFRRHPVA (Amino acids 1-13 of P9) [peptide P9 (1-13) (SEQ ID NO: 47)] | binds
SHRCFHFRRHPVA (Amino acids 1-13 of P9 with Cys 1 replaced by Ser) [peptide P9 (1-13; 1 Ser) (SEQ ID NO: 53)] | binds
